B1: IL6R-P605/IL6R-L (antibody, human IgG1, kappa)
heavy: QVQLQESGPGLVKPSETLSLTCAVSGHSISHDHAWSWVRQPPGEGLEWIGFISYSGITNYNPSLQGRVTISRDNSKNTLYLQMNSLRAEDTAVYYCARSLARTTAMDYWGEGTLVTVSSASTKGPSVFPLAPSSKSTSGGTAALGCLVKDYFPEPVTVSWNSGALTSGVHTFPAVLQSSGLYSLSSVVTVPSSSLGTQTYICNVNHKPSNTKVDKKVEPKSCDKTHTCPPCPAPELLGGDSVFLFPPKPKDTLMISRTPEVTCVVVDVSHEDPEVKFNWYVDGVEVHNAKTKPREEQDNATYRVVSVLTVLHQDWLNGKEYKCKVSNKALPAPIEKTISKAKGQPREPQVYTLPPSRDELTKNQVSLTCLVKGFYPSDIAVEWESNGQPENNYKTTPPVLDSDGSFFLYSKLTVDKSRWQQGNVFSCSVMHEALHNHYTQKSLSLSP
light: not shown
B2: IL6R-P657/IL6R-L (antibody, human IgG1, kappa)
heavy: QVQLQESGPGLVKPSETLSLTCAVSGHSISHDHAWSWVRQPPGEGLEWIGFISYSGITNYNPSLQGRVTISRDNSKNTLYLQMNSLRAEDTAVYYCARSLARTTAMDYWGEGTLVTVSSASTKGPSVFPLAPSSKSTSGGTAALGCLVKDYFPEPVTVSWNSGALTSGVHTFPAVLQSSGLYSLSSVVTVPSSSLGTQTYICNVNHKPSNTKVDKKVEPKSCDKTHTCPPCPAPELLGGDSVMLFPPKPKDTLMISRTPEVTCVVVDVSHEDPEVKFNWYVDGVEVHNAKTKPREEQENSTYRVVSVLTVLHQDWLNGKEYKCKVSNKALPYPIEKTISKAKGQPREPQVYTLPPSRDELTKNQVSLTCLVKGFYPSDIAVEWESNGQPENNYKTTPPVLDSDGSFFLYSKLTVDKSRWQQGNVFSCSVMHEALHNHYTQKSLSLSP
light: not shown
B3: IL6R-P656/IL6R-L (antibody, human IgG1, kappa)
heavy: QVQLQESGPGLVKPSETLSLTCAVSGHSISHDHAWSWVRQPPGEGLEWIGFISYSGITNYNPSLQGRVTISRDNSKNTLYLQMNSLRAEDTAVYYCARSLARTTAMDYWGEGTLVTVSSASTKGPSVFPLAPSSKSTSGGTAALGCLVKDYFPEPVTVSWNSGALTSGVHTFPAVLQSSGLYSLSSVVTVPSSSLGTQTYICNVNHKPSNTKVDKKVEPKSCDKTHTCPPCPAPELLGGDSVMLFPPKPKDTLMISRTPEVTCVVVDVSHEDPEVKFNWYVDGVEVHNAKTKPREEQENSTYRVVSVLTVLHQDWLNGKEYKCKVSNKALPHPIEKTISKAKGQPREPQVYTLPPSRDELTKNQVSLTCLVKGFYPSDIAVEWESNGQPENNYKTTPPVLDSDGSFFLYSKLTVDKSRWQQGNVFSCSVMHEALHNHYTQKSLSLSP
light: not shown
B4: IL6R-P653/IL6R-L (antibody, human IgG1, kappa)
heavy: QVQLQESGPGLVKPSETLSLTCAVSGHSISHDHAWSWVRQPPGEGLEWIGFISYSGITNYNPSLQGRVTISRDNSKNTLYLQMNSLRAEDTAVYYCARSLARTTAMDYWGEGTLVTVSSASTKGPSVFPLAPSSKSTSGGTAALGCLVKDYFPEPVTVSWNSGALTSGVHTFPAVLQSSGLYSLSSVVTVPSSSLGTQTYICNVNHKPSNTKVDKKVEPKSCDKTHTCPPCPAPELLGGDSVMLFPPKPKDTLMISRTPEVTCVVVDVSPEDPEVKFNWYVDGVEVHNAKTKPREEQENSTYRVVSVLTVLHQDWLNGKEYKCKVSNKALPAPIEKTISKAKGQPREPQVYTLPPSRDELTKNQVSLTCLVKGFYPSDIAVEWESNGQPENNYKTTPPVLDSDGSFFLYSKLTVDKSRWQQGNVFSCSVMHEALHNHYTQKSLSLSP
light: not shown
B5: IL6R-P654/IL6R-L (antibody, human IgG1, kappa)
heavy: QVQLQESGPGLVKPSETLSLTCAVSGHSISHDHAWSWVRQPPGEGLEWIGFISYSGITNYNPSLQGRVTISRDNSKNTLYLQMNSLRAEDTAVYYCARSLARTTAMDYWGEGTLVTVSSASTKGPSVFPLAPSSKSTSGGTAALGCLVKDYFPEPVTVSWNSGALTSGVHTFPAVLQSSGLYSLSSVVTVPSSSLGTQTYICNVNHKPSNTKVDKKVEPKSCDKTHTCPPCPAPELLGGDSVMLFPPKPKDTLMISRTPEVTCVVVDVSHEDPEVKFNWYVDGVEVHNAKTKPREEQENSTYRVVSVLTVLHQDWLNGKEYKCKVNNKALPAPIEKTISKAKGQPREPQVYTLPPSRDELTKNQVSLTCLVKGFYPSDIAVEWESNGQPENNYKTTPPVLDSDGSFFLYSKLTVDKSRWQQGNVFSCSVMHEALHNHYTQKSLSLSP
light: not shown
B6: IL6R-P655/IL6R-L (antibody, human IgG1, kappa)
heavy: QVQLQESGPGLVKPSETLSLTCAVSGHSISHDHAWSWVRQPPGEGLEWIGFISYSGITNYNPSLQGRVTISRDNSKNTLYLQMNSLRAEDTAVYYCARSLARTTAMDYWGEGTLVTVSSASTKGPSVFPLAPSSKSTSGGTAALGCLVKDYFPEPVTVSWNSGALTSGVHTFPAVLQSSGLYSLSSVVTVPSSSLGTQTYICNVNHKPSNTKVDKKVEPKSCDKTHTCPPCPAPELLGGDSVMLFPPKPKDTLMISRTPEVTCVVVDVSHEDPEVKFNWYVDGVEVHNAKTKPREEQENSTYRVVSVLTVLHQDWLNGKEYKCKVHNKALPAPIEKTISKAKGQPREPQVYTLPPSRDELTKNQVSLTCLVKGFYPSDIAVEWESNGQPENNYKTTPPVLDSDGSFFLYSKLTVDKSRWQQGNVFSCSVMHEALHNHYTQKSLSLSP
light: not shown
B7: IL6R-P658/IL6R-L (antibody, human IgG1, kappa)
heavy: QVQLQESGPGLVKPSETLSLTCAVSGHSISHDHAWSWVRQPPGEGLEWIGFISYSGITNYNPSLQGRVTISRDNSKNTLYLQMNSLRAEDTAVYYCARSLARTTAMDYWGEGTLVTVSSASTKGPSVFPLAPSSKSTSGGTAALGCLVKDYFPEPVTVSWNSGALTSGVHTFPAVLQSSGLYSLSSVVTVPSSSLGTQTYICNVNHKPSNTKVDKKVEPKSCDKTHTCPPCPAPELFGGDSVMLFPPKPKDTLMISRTPEVTCVVVDVSHEDPEVKFNWYVDGVEVHNAKTKPREEQENSTYRVVSVLTVLHQDWLNGKEYKCKVSNKALPAPIEKTISKAKGQPREPQVYTLPPSRDELTKNQVSLTCLVKGFYPSDIAVEWESNGQPENNYKTTPPVLDSDGSFFLYSKLTVDKSRWQQGNVFSCSVMHEALHNHYTQKSLSLSP
light: not shown

What was measured:
[1] = biological target: T1, FcγRIIb extracellular domain, His tag (human, UniProt P31994 43-217); test: SPR, bound amount per captured antibody
T1 construct: extracellular domain; also called FcgRIIb
T1 sequence (looked up): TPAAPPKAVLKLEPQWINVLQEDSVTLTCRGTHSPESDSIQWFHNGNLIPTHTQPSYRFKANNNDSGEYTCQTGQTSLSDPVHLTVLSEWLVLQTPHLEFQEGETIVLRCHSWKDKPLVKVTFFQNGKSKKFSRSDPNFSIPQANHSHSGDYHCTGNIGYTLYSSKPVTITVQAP

[2] = biological target: T2, FcγRIIa R type extracellular domain, His tag (human, UniProt P12318 34-217); test: SPR, bound amount per captured antibody
T2 construct: extracellular domain; also called FcgRIIaR
T2 sequence (looked up): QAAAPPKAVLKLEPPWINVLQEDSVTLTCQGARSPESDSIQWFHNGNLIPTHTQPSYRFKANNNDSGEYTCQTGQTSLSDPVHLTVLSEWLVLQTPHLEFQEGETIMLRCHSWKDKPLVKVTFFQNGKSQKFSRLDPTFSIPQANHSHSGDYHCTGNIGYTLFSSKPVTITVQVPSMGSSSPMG

[3] = biological target: T3, FcγRIIIa V type extracellular domain, His tag (human, UniProt P08637 17-208); test: SPR, KD ratio
T3 construct: extracellular domain; also called FcgRIIIaV

[4] = biological target: T4, FcγRIa extracellular domain, His tag (human, UniProt P12314 16-292); test: SPR, KD ratio
T4 construct: whole entry named; also called FcgRIa

[5] = biological target: T5, FcγRIIa H type extracellular domain, His tag (human, UniProt P12318 34-217); test: SPR, KD ratio
T5 construct: extracellular domain; also called FcgRIIaH
T5 sequence (looked up): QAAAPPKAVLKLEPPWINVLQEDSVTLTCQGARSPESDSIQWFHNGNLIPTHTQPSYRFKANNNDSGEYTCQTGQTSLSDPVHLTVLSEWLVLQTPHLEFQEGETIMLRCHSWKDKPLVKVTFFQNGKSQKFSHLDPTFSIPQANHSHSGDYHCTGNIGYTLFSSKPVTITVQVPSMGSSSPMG

[6] = biological target: T1, FcγRIIb extracellular domain, His tag; test: SPR, KD ratio
[7] = biological target: T2, FcγRIIa R type extracellular domain, …; test: SPR, KD ratio

T3 sequence (P08637 17-208 F176V): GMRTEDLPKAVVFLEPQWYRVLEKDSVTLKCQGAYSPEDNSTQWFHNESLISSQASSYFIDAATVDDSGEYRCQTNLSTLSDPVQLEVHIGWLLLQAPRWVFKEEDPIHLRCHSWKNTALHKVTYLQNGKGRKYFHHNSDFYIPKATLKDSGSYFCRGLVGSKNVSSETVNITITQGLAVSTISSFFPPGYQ
T4 sequence (P12314 16-292): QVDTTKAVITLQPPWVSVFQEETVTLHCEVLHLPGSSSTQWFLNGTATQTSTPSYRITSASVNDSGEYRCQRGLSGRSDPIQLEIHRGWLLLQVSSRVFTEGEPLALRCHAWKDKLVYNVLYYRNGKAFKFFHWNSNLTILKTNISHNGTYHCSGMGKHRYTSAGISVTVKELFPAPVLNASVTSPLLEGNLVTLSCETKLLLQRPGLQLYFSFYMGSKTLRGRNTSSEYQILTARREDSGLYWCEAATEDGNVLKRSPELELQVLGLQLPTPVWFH

Binder	Relative FcgRIIb-binding Activity [1]	Relative FcgRIIaR-binding Activity [2]	Relative FcgRIIIaV-binding Activity [3]	Relative FcgRIa-binding Activity [4]	Relative FcgRIIaH-binding Activity [5]	Relative FcgRIIb-binding Activity [6]	Relative FcgRIIaR-binding Activity [7]
B1	82 % of IL6R-G1d/IL6R-L	13.5 % of IL6R-G1d/IL6R-L	0.008 fold of IL6R-G1d/IL6R-L	0.0384 fold of IL6R-G1d/IL6R-L	0.007 fold of IL6R-G1d/IL6R-L	0.977 fold of IL6R-G1d/IL6R-L	0.021 fold of IL6R-G1d/IL6R-L
B2	115 % of IL6R-G1d/IL6R-L	15.4 % of IL6R-G1d/IL6R-L	0.005 fold of IL6R-G1d/IL6R-L	0.0194 fold of IL6R-G1d/IL6R-L	0.009 fold of IL6R-G1d/IL6R-L	1.64 fold of IL6R-G1d/IL6R-L	0.026 fold of IL6R-G1d/IL6R-L
B3	138 % of IL6R-G1d/IL6R-L	18.2 % of IL6R-G1d/IL6R-L	0.007 fold of IL6R-G1d/IL6R-L	0.0118 fold of IL6R-G1d/IL6R-L	0.011 fold of IL6R-G1d/IL6R-L	2.68 fold of IL6R-G1d/IL6R-L	0.032 fold of IL6R-G1d/IL6R-L
B4	116 % of IL6R-G1d/IL6R-L	14.5 % of IL6R-G1d/IL6R-L	0.007 fold of IL6R-G1d/IL6R-L	0.0183 fold of IL6R-G1d/IL6R-L	0.009 fold of IL6R-G1d/IL6R-L	1.46 fold of IL6R-G1d/IL6R-L	0.024 fold of IL6R-G1d/IL6R-L
B5	128 % of IL6R-G1d/IL6R-L	18.2 % of IL6R-G1d/IL6R-L	0.007 fold of IL6R-G1d/IL6R-L	0.0206 fold of IL6R-G1d/IL6R-L	0.014 fold of IL6R-G1d/IL6R-L	2.02 fold of IL6R-G1d/IL6R-L	0.032 fold of IL6R-G1d/IL6R-L
B6	127 % of IL6R-G1d/IL6R-L	17.1 % of IL6R-G1d/IL6R-L	0.007 fold of IL6R-G1d/IL6R-L	0.0183 fold of IL6R-G1d/IL6R-L	0.017 fold of IL6R-G1d/IL6R-L	1.89 fold of IL6R-G1d/IL6R-L	0.03 fold of IL6R-G1d/IL6R-L
B7	149 % of IL6R-G1d/IL6R-L	20.8 % of IL6R-G1d/IL6R-L	0.005 fold of IL6R-G1d/IL6R-L	0.0004 fold of IL6R-G1d/IL6R-L	0.01 fold of IL6R-G1d/IL6R-L	3.81 fold of IL6R-G1d/IL6R-L	0.038 fold of IL6R-G1d/IL6R-L
